Molecular target: Aβ(1–28) (Homo sapiens (assumed), UniProt P05067)
Assay: SPR

Sequence of Aβ(1–28) (P05067 672-699): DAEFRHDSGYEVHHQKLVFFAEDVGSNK

binding result | Binder
binds | crenezumab G33S(HC)-NEP fusion, IgG-CTF-2 format (antibody, V domains shown) VH: EVQLVESGGGLVQPGGSLRLSCAASGFTFSSYSMSWVRQAPGKGLELVASINSNGGSTYYPDSVKGRFTISRDNAKNSLYLQMNSLRAEDTAVYYCASGDYWGQGTTVTVSS VL: DIVMTQSPLSLPVTPGEPASISCRSSQSLVYSNGDTYLHWYLQKPGQSPQLLIYKVSNRFSGVPDRFSGSGSGTDFTLKISRVEAEDVGVYYCSQSTHVPWTFGQGTKVEIK
binds | crenezumab G33S(HC)/S56F(LC)-NEP fusion, IgG-CTF-2 format (antibody, V domains shown) VH: EVQLVESGGGLVQPGGSLRLSCAASGFTFSSYSMSWVRQAPGKGLELVASINSNGGSTYYPDSVKGRFTISRDNAKNSLYLQMNSLRAEDTAVYYCASGDYWGQGTTVTVSS VL: DIVMTQSPLSLPVTPGEPASISCRSSQSLVYSNGDTYLHWYLQKPGQSPQLLIYKVSNRFFGVPDRFSGSGSGTDFTLKISRVEAEDVGVYYCSQSTHVPWTFGQGTKVEIK

From article PMC10189407 (The Journal of Biological Chemistry, 2023)
